We go through 2 molecules from US20260085128A1 (BIOLEGEND, published 2026).

The target in assay [1] is T1, human CD157 (human, UniProt Q10588 33-293).
T1 construct: Endogenous CD157 on human U-937 cells and on human blood monocytes and granulocytes; also called BST-1; bone marrow stromal cell antigen 1
T1 sequence: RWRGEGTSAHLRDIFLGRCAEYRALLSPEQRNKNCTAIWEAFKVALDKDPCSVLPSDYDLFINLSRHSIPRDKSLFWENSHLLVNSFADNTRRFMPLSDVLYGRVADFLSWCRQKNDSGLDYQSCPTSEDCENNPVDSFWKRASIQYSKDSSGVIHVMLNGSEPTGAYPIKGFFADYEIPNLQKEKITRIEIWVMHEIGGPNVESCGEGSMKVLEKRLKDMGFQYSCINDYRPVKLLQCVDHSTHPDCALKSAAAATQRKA
The assay is described as follows: flow cytometry on U-937 cells, anti-rat IgG-PE secondary. The procedure:
U-937 cells were grown in RPMI media supplemented with 10% FBS in T75 culture flask, to about 80% confluency. Various concentrations of exemplary generated anti-CD157 antibodies were added, including 2, 1, 0.5, 0.25, 0.125 and 0.06 μg, and allowed to incubate for 15 minutes. Cells were then washed twice with FACS wash buffer and stained with anti-rat IgG-PE secondary antibody for 15 minutes. Cells were washed with FACS buffer and analyzed on a BD LSRII flow cytometer.

The target in assay [2] is T1, human CD157. Nature of the assay: flow cytometry, summary sentence of Example 3. A general note: In flow cytometry, cells or beads pass a laser one at a time.

B1: anti-CD157 monoclonal antibody AB1 (antibody, V domains shown)
VH: QVQLKESGPGLVQPSQTLSLTCTVSGFSLTSYHVSWVRQPPGKGLEWMGIIWTGGSTAYNSLLKSRLSISRDTSKSQVFLKMNSLQTEDTATYYCARSITPTFFDYWGQGVMVTVSS
VL: QFVLTQPNSVSTNLGSTVKLSCKRSTGNFGNNYVNWYQQHEGRSPTTMIYRDDKRPDGVPDRFSGSIDRSSNSALLTISNVQTEDEADYFCQSYSSGIVFGGGTKLTVL
notes: Hybridoma-derived monoclonal antibody; It was detected with an anti-rat IgG-PE secondary antibody; also called antibody 1; clone 1
With B1, the binding result in assay [1] was “binds”.

B2: anti-CD157 monoclonal antibody AB3 (antibody, V domains shown)
VH: EVHLVESGGGLVQPGRSLKLSCAASGFTFSNYDMAWIRQAPAKGLEWVASISIRGGSTYYRDSVKGRFTVSRDNAKSTLYLQMDSLRSEDTATYYCVRGTDYYYDYFDYWGQGVMVTVSS
VL: NIQMTQSPSLLSASVGDRVTLSCKAGRNINSYLAWYQQMLGEAPKLLIYNANSLQTGIPSRFSGSGSGTDYTLTISSLQPEDVATYFCQQYNSWTNTFGAGTKLELK
notes: Hybridoma-derived monoclonal antibody; It was detected with an anti-rat IgG-PE secondary antibody; also called antibody 3; clone 3
As for B2, the binding result in assay [2] is listed as “binds”.
